Results published in article PMC5741103.

Legend:
[1] = target: SLMAP (UniProt Q14BN4); assay: co-IP, FLAG-MST2 and V5-SLMAP; details: reference: wild type MST2; sites T325,T336,T378
[2] = target: SLMAP (UniProt Q14BN4); assay: co-IP, MST2 variants and V5-SLMAP

Row | Substance | binding against the reference [1] | binding against the reference ([2]; reference: MST2-6A/325T, sites T325) | binding against the reference ([2]; reference: MST2-6A/336T, sites T336) | binding against the reference ([2]; reference: MST2-6A/378T, sites T378)
1 | MST2 (from UniProt Q13188) MST2-3A | lost |  |  | 
2 | MST2 (from UniProt Q13188) MST2-7A |  | lost | lost | lost
